From patent US20090233074A1 (ARTIFICIAL CELL TECHNOLOGIES, published 2009)
Blank lines part the entries; values can stand above or below the binder they belong to.

Key:
[1] = molecular target: T1, de novo-designed cysteine-containing negative polypeptide (SEQ ID NO: 6); experiment: QCM, layer-by-layer assembly, 10 mM Tris-HCl, 10 mM DTT, pH 7.4, 2 mg/mL peptide
T1 peptide: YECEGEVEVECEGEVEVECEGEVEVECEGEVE
Experimental: All assembly experiments using QCM were conducted in the same conditions, except that the samples to undergo oxidation were dried using air instead of nitrogen gas. The assembly conditions were 10 mM Tris-HCl, 10 mM DTT, pH 7.4. The nominal peptide concentration was 2 mg/mL. The number of layers formed was 14.

[2] = molecular target: T2, LN3 (long negative designed polypeptide); experiment: QCM, electrostatic layer-by-layer adsorption of oppositely charged peptides, pH 7.4, 1 mM DTT (pairs named in paragraph 153)
T2 construct: Synthetic 48-residue polyanion; also called negative 48-residue peptide
T2 peptide: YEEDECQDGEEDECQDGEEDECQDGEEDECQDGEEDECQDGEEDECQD
Experimental: (§1) The polypeptide molecular weight was verified by electrospray mass spectrometry. Peptide purity was greater than 70%. The polypeptide buffer was 10 mM sodium phosphate or 10 mM Tris-HCl, 1 mM DTT, 0.1 mM sodium azide, pH 7.4. All chemicals other than polypeptides were purchased from Sigma-Aldrich (USA).
(§2) Resonators were rinsed for 1 min. in pure water between subsequent adsorption cycles (removing perhaps 10-15% of weakly adsorbed material) and dried in a stream of gaseous N₂. Then the mass of the deposited peptide was measured indirectly by QCM. The mass measurement includes some water, despite drying, and low mass ions like K⁺, Na⁺, and Cl⁻. Partial interpenetration of neighboring layers of peptide is probable (see Decher, G. (1997) Science 227:1232; Schmitt et al. (1993) Macromolecules 26:7058; and Korneev et al. (1995) Physica B 214:954); this could be important for the efficiency of disulfide “locking.”
(§3) After adsorption of the polypeptide and rinsing and drying the QCM resonator, the resonant frequency of the resonator was measured. This enabled calculation of the frequency shift on adsorption and change in adsorbed mass. A decrease in frequency indicates an increase in adsorbed mass. […] Each of these combinations involved one negative polypeptide and one positive polypeptide, as required by ELBL.

[3] = molecular target: T3, SN1 (short negative designed polypeptide); experiment: as above
T3 construct: Synthetic 32-residue polyanion built from a 7-residue motif of human complement C3, with Gly linkers and an N-terminal Tyr
T3 peptide: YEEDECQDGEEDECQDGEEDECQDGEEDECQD
Experimental: as §1, §2, §3

- binding result [1]: binds
Binder: YKCKGKVKVKCKGKVKVKCKGKVKVKCKGKVK [de novo-designed cysteine-containing positive polypeptide (SEQ ID NO: 5)]

- binding result [2]: binds
Binder: YRRRRSVQGRRRRSVQGRRRRSVQGRRRRSVQGRRRRSVQGRRRRSVQ (Synthetic 48-residue polycation) [LP4 (long positive designed polypeptide)]

- binding result [2]: binds
- binding result [3]: binds
B1: SP2 (short positive designed polypeptide) (peptide)
peptide: YRRRRSVQGRRRRSVQGRRRRSVQGRRRRSVQ
notes: Synthetic 32-residue polycation built from a 7-residue motif of human lactotransferrin, with Gly linkers and an N-terminal Tyr
